Reference: PMC6112790, “MicroED structure of the NaK ion channel reveals a Na^+ partition process into the selectivity filter” (Communications Biology, 2018)

Biological target: the molecule itself
Experiment: crystal structure; MicroED (electron diffraction, continuous rotation) of nano-crystals grown in Na+ buffers with MPD, protein in DM detergent; 11 crystals merged; 2.5 Å; space group I4; tetramer on the four-fold axis

B1: NaK–∆19 (NaK ion channel from Bacillus cereus with the first 19 residues truncated) (domain or fragment)
chain: KDKEFQVLFVLTILTLISGTIFYSTVEGLRPIDALYFSVVTLTTVGDGNFSPQTDFGKIFTILYIFIGIGLVFGFIHKLAVNVQLPSILSNRKKE
notes: NaK channel, Bacillus cereus, wild type with the first 19 residues truncated (about 10-kDa monomer); also called molA; molB
stoichiometry N: 4
